Here are results for two molecules from patent publication US20220403048A1, “BINDING MOLECULES TO ARGINASE II [ARG2]” (Cancer Research Technology Limited, priority 2019, published 2022).

In one assay the target is T1, ARG2 (Homo sapiens, UniProt P78540).
T1 sequence (P78540 23-354): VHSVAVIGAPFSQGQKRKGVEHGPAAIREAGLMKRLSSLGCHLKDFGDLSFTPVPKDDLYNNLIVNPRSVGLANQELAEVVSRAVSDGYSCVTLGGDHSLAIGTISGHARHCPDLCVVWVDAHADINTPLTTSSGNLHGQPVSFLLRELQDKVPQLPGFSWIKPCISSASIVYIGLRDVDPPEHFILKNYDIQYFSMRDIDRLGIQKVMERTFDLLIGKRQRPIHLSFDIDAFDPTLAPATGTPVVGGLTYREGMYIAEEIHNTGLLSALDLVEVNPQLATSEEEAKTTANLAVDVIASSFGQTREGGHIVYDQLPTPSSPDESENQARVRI
Description: Size-exclusion chromatography of ARG2-Fab binding stoichiometry. The conditions noted are these: FIG. 23A. The arrangement: human ARG2 (aa23-354); His10 (C); made in house; host or cells: E. coli BL21 (DE3). On the procedure: ARG2 and Fabs were analysed at concentrations of 8 μM (referring to monomers) in SEC buffer containing 25 mM tris at pH 7.4 and 150 mM NaCl. ARG2-Fab complexes were formed by mixing both ARG2 and Fabs at concentrations of 8 μM (referring to monomers) in SEC buffer and incubation on ice for 1 h. For size-exclusion chromatography, […] of sample were injected into a 100 μl loop connected to a Superose 6 Increase 10/300 GL column (GE Healthcare) which was mounted to an AKTAexpress FPLC system (GE Healthcare). The column was equilibrated in SEC buffer, and SEC was performed at a flow rate of 0.5 ml/min. Molecular-weight estimates are based on the retention volumes seen for β-amylase, bovine serum albumin and carbonic anhydrase, which were analysed on the same FPLC system under identical conditions.
A general note: Size exclusion chromatography separates by hydrodynamic size, large species first.

The next assay addresses T2, trimeric human ARG2 (Homo sapiens, UniProt P78540).
T2 construct: human ARG2 (aa23-354); His10 (C); made in house; host or cells: E. coli BL21 (DE3)
T2 sequence (P78540 23-354): T1 sequence (P78540 23-354)
Description: Human trimeric ARG2 enzyme inhibition assay (urea production). It counts as biochemical. How it is done:
Unpurified anti-ARG2 scFv fragments from periplasmic preparations were screened in an ARG2 enzyme inhibition assay using a Pherastar plate reader (BMG Labtech, Germany). In this assay, the ability of unpurified scFv to inhibit the enzymatic activity of trimeric ARG2 was determined by measuring the production of urea, the product of L-arginine turnover by ARG2.
Selection outputs were screened as unpurified bacterial periplasmic extracts containing scFv, prepared in 200 mM TES buffer pH 7.4, 0.5 mM EDTA and 0.5 M sucrose. 10 μl of unpurified scFv were added to a Greiner Bio-One® 384 well assay plate (Greiner Bio-one, UK; cat: 781901). This was followed by the addition of 5 μl of 1.6 μg/ml trimeric human ARG2 that had been diluted in 40 mM MnCl2, 100 mM tris-HCl, pH7.4 (4× enzyme buffer). […]
Urea was detected by the simultaneous addition of equal volumes of O-Phthaldialdehyde (1.5 mM O-Phthaldialdehyde, 7% H2SO4, 0.03% Brij L23) and N-(1-Napthyl)ethylenediamine (1.66 mM N-(1-Napthyl)ethylenediamine, 81 mM Boric acid, 21% H2SO4, 0.03% Brij L23) followed by an 18 minute incubation at room temperature before the colorimetric product was quantified on the Pherastar by measuring absorbance at 505 nm. […]
Data were analysed by calculating % maximum (max) control for each sample using the 505 nm absorbance data. % max control was determined according to equation 2. […]
IC50 values were determined by testing a dilution series of the purified scFv, prepared in TBS, in the ARG2 enzyme inhibition assay described in section 1.5, substituting the unpurified scFv periplasmic preparation with the purified scFv.
Background control wells were defined for each plate by the omission of substrate. […] Data were analysed by calculating % maximum (max) control for each sample. % max control was determined according to equation 1 detailed in section 1.5. […]
Data were again analysed by calculating % Max control values for each sample. […]

B1: C0021139: anti-ARG2 antibody, VH SEQ ID NO: 212, VL SEQ ID NO: 217 (antibody, listed as Homo sapiens, V domains shown)
VH: EVQLLESGGGLVQPGGSLRLSCAASGFTFQYDYQVWVRQAPGKGLEWVSAISGSGGSTYYADSVKGRFTISRDNSKNTLYLQMNSLRAEDTAVYYCARLRADLGLYMDLWGRGTLVTVSS
VL: QSVLTQPPSVSAAPGQKVTISCSGSSSNIGNHYVSWYQQLPGTAPKLLIYDNSERTSGIPDRFSGSKSGTSATLGITGLQTGDEADYYCGTWDELTSNLVFGGGTKLTVL
modifications: C0021139
Consider B1, for which, in the assay with ARG2 (8 μM each), the “size-exclusion peak of 1:1 molar mixture of ARG2 and Fab” value turned out to be 275 kDa. In addition, the “Fabs bound to one ARG2 trimer” value in the assay with ARG2 (from size-exclusion profile) is recorded as “three Fabs”.

B2: C0020065: anti-ARG2 antibody, alternate lead isolation clone, VH SEQ ID NO: 2, VL SEQ ID NO: 7 (antibody, listed as Homo sapiens, V domains shown)
VH: GVNLRESGGGVVQPGRSLRLSCAASGFTFSSYAMHWVRQAPGKGLEWVAVISYDGSNKYYVDSVKGRFTISRDNSKNTLYLQMNSLRAEDTAVYYCARDSSQLWFDYWGRGTLVTVSS
VL: QSVVTQPPSVSGAPGQRVTISCTGSSSNIGTGYDVHWYQQLPGTAPKLLIYGNSNRPSGVPDRFSGSKSGTSASLAITGLQAEDEADYYCQSYDSSLSGSVVFGGGTQLTVL
modifications: C0020065
As for B2, the “inhibition of the activity of human trimeric ARG2” value is recorded as “inhibited” with trimeric human ARG2 (purified recombinant human IgG1, FIG. 3) and “inhibited” in the assay with trimeric human ARG2 (purified scFv, FIG. 2).
